The results in this text go back to the nanobody polyreactivity screen of Harvey et al. (2022).

A short description of the data set: yeast display, Sf9 membrane polyspecificity reagent, FACS + sequencing; frameworks hold sequencing errors. The method, boiled down: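 After 36–48 hours of galactose induction, yeast (Saccharomyces cerevisiae BJ5465) displaying a synthetic nanobody library were stained at 4 °C for 1 hour with 10% biotinylated, detergent-solubilized Sf9 membrane reagent. Streptavidin microbeads enriched the stained cells before FACS sorting into low and high (top ~1%) gates on anti-HA and streptavidin fluorescence. Each clone's polyreactivity label reflects its gate of origin.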
Consider “QGQLVESGGGLVQAGGSLRLSCAASGRTFFNNVMGWYRQAPGKERELVAAISKSGTRTYYADSVKGRFTISRDNAKNTVYLQMNSVKPEDTAVYYCATGQYLRTSRYYYWGHGTQVTVSS”, for which the “polyreactivity (PSR sort gate)” value is on record as “high polyreactivity”.
Take “QVQLVESGGGLVQAGGSLRLSCAASGNIFWWDAMGWYRQAPGKERELVAAITSDSTTYYADSVKGRFTISRDNAKNTVYLQMNSLKPEDTAVYYCAAYSYGGQGVDYGYWGQGTQVTVSS”: the “polyreactivity (PSR sort gate)” value is given as “low polyreactivity”.
On to “QVQLVESGGGLVQAGGSLRLSCAASGRIFRPNAMGWYRQAPGKERELVAAITSNGGRTYYADSVKGRFTISRDNAKNTVYLQMNSLKPEDTAVYYCNAAPFRSGYGYWGQGTQVTVSS”, for which the “polyreactivity (PSR sort gate)” value was “high polyreactivity”.
As for “QVQLVESGGGLVQAGGSLRLSCAASGRTFRGYAMGWYRQAPGKERELVAAISASGGSTYYADSVKGRFTISRDNAKNTVYLQMNSLKPEDTAVYYCAARFWFTKGYDYWGQGTQVTVSS”, the entry is “high polyreactivity”; as for “QVQLVESGGGLVQAGGSLRVSCAASGFTFPYSAMGWYRQAPGKERELVAAIDWTGGSTYYADSVKGRFTISRDNPKNTVNLQINSLIPDDTAVYYCARDVDYYISSPTPPVVELDYWGQGTQVTVSS”, “low polyreactivity”; as for “QVQLVESGGGLVQAGGSLRLSCAASGGTFATYAMGWYRQAPGKERELVAAISWSGGSTYYAVSVKGRFTISRDNAKNTVYLQMNSLKPEDTAVYYCAAASRAPSGLYYYWGQGTQVTVSS”, “high polyreactivity”.
As for “QVQLVESGGGLVQAGGSLRLSCAASGFIFKRYAMGWYRQAPGKERELVATISNSGGRTYYADSVKGRFTISRDNAKNTVYLQINSLKPEDTAVYYCDALPFWWGGYWGQGTQVTVSS”, the “polyreactivity (PSR sort gate)” value is “high polyreactivity”.
Consider “QVQLVEKGGCLVQAGGSLSLSCAAYGRTFILNSMGCYRQAPWKEMELVAAISWSGGSTYYADSVKGRFTISRDNAKNTVYLQMNSLKPEDTAVYYCAAETYAYLFHTYDYWGQGTQVTVSS”, for which the “polyreactivity (PSR sort gate)” value was “low polyreactivity”.
As for “QVQLVESGVGLVQAVGSLRISCAASGRIFQPYAMGWYRQAPGNERELVARITRRGVSTYYADSVKGRFTISRENAKNTVYLQMNSLKPEDTAVYYCAAELFGGYYYWGLGTQVTVSS”, the entry is “high polyreactivity”.
Take “QVQLVESGGGLVQAGGSLRLSCAASGFTFTVYAMGWYRQAPGKERELVAVITAGDGTYYADSVKGRFTISRDNAKNTVYLQMNSLKPEDTAVYYCIALRYSSFRYLFAYDYWGQGTQVTVSS”: the “polyreactivity (PSR sort gate)” value is recorded as “low polyreactivity”.
For the sequence “QVQLVESGGGLVQAGGSLRLSCAASGSTFHLYAMGWYRQAPGKEREIVAAIRGRGGNTYADSVKGRFTISRDNAKNTVYLQMNSLKPEDTAVYYCAAPLLRDLRSPYSYNYWGQGTQVTVSS”, the “polyreactivity (PSR sort gate)” value is “low polyreactivity”.
As to “QVQLVESGGGLVQAGGSLRLSCAASGSTIYRYAMGWYRQAPGKERELVATISRTGARTNYADSVKGRFTISRDNAKNTVYLQMNSLKPEDTAVYYCAASAPYIYYWGQGTQVTVSS”, the “polyreactivity (PSR sort gate)” value is recorded as “high polyreactivity”.
With “QVQLVESAGGLVQAGGSLRLSCAASGLIFAVYAKGLYRQAPGKEREFLAAITGTGSSTYYADSVKGRFTISRDNAKNTVYLQMNSLKPEDTAVYYCNAYVYDWIPYYHIDHDYWGQGTQVTVSS”, the “polyreactivity (PSR sort gate)” value is given as “low polyreactivity”.
As for “QVQLEESGGGLVQAVGIIRLSCGASVSIFDAYAIGWYRKAPGKETELVASITYGGRTNYADSVEGRFTISRDNAKNTVYLQMNSLKPEDTAVYYCAAGGGYYYRYHRYPRGYWGQGTQVTVTS”, the entry is “high polyreactivity”; as for “QVQLVESGGGLVQAGGSLRLSCAASGFSFEGYAMGWYRQAPGKERELVAAISSNGGRTYYADSVKGRFTISRDNAKNTVYVLMNSLKPEDTAVYYCNARRAYSGPDYDYYHGRRYDYWGQGTQVSVSS”, “low polyreactivity”.
As for “QVQLVESGGGLVQAGGSLRLSCAASGSTLATYTMGWYRQAPGKERELVAAISFGGSTYYAYSVKGRFTISRDNAKNTVYLQMNSLKPEDTAVYYCAVYGDSYWGAYYYSDGYWGQGTQVTVSS”, the entry is “low polyreactivity”.
In the case of “QVQLVESGGGLVQAGGSLRLSCAASGFTFFTNAMGWYRKAPGKEREFVAAISGSGSRTYYADSVKGRFTISRDNAKNTVYLQMNSLIPEDTAVYYCAARVRGVYPFDYWGQGTQVTVSS”, the “polyreactivity (PSR sort gate)” value is given as “high polyreactivity”.
As for “QVQLQESGGGLVQAGGSLRQSCAASGNIFLGDTMGWYRPAPGKEREFVAGIARGGNPYYADSVKGRFTISRNNAKNTVYLQKNSLKPEDTAVHYCAVQRSHASDYNYWGQGTQVTVSS”, the entry is “low polyreactivity”; as for “QVQLVESGGGLVQAGGSLGLSCAASGYTFDHNAMGWYRQAPGKERELVAAINWSGGSTYYADSVKVRFTISRDNAKNTVYLQMKSLKPEDTAVYYCARYRVLASRVDYWGQGTQVTVSS”, “high polyreactivity”.
With “QVQLVEAGGGLVQAGGSLRLSCAASGSIFAQNVRGWSRQAPGKERELVAAISYSGGTTYYADSVKGRFTISRDNAMNTVYLQMNSLKPEDTAVYDCAAEFGVYEYDYWGQGTQVTVSS” the entry was “low polyreactivity”; with “HVQLVESGGGLVQAGGSLRLSCAASGGIFSYYAMGWFRQAPGKERELVAAISSRGTNTHYADSVKGRFTISRDNAKNTVDLQMNSLKPEDTAVYYCAADKRASPIYDWGQGTQVTVSS”, “high polyreactivity”; with “QVQLVESGGGLVQAGGSLRLSCAASGSIFKYYAMGWYRQAPGKERELVAAISFSGGSTYYADSVKGRFTISRDNAKNTVYLQMNSLKPEDTAVYYCAVLGVWGYGYWGQGTQVTVSS”, “high polyreactivity”.
With “QVQLVESGGGLVQAGGSLRLSCAASGLIFTAYAMGWYRPAPGKERELVAAITGSGGRTYYADSVKGRFTISRDNALNSVYLQMNSLKAEDTAVYYCAADFPARGSSTYDYWGQGTQVTVSS” the entry was “high polyreactivity”.
Consider “QVQLVESGGGLVQAGGSLRLSCAASGRTGVNAMGWYRQAPGKERGMVAAINTSVGRTYYADSVKGRFTISRDNAKNTVYLQMNSLKPEDTAVYYCNTDRLGAARYDYWGQGTQVTVSS”, for which the “polyreactivity (PSR sort gate)” value is listed as “low polyreactivity”.
Regarding “QVQLVESGGGLVQAGGSLPLSCAASGRIFSYYAMGRYRQAPGKERELVASISRSGGSTYYADSVKGRFTISRDNAKNTVYLQMISLKPEDTAVYYCAAYKYVRSYPYDYWGQGTQVTVSS”, the “polyreactivity (PSR sort gate)” value is “low polyreactivity”.
As for “QVQLVESGGGLVQAGGSLRLSCAASGIIFGEYAMGWYRQAPGKERELVAAISGSGSRTYYADSVKGRFTISRDNAKNTVYLQMNSLKPEDTAVYYCAVKGGGTRYGYWGQGTQVTVSS”, the entry is “high polyreactivity”; as for “QVQLVESGGGLVQAGGSLRLSSAASGSPFIYYVMGWYRQAPGKERELVAAITRSGSTNYADSVKGRFTISRDNAKNTVYLQMNSLKPEDTAVYYCAAERALSRYGYWGHGTQVTVSS”, “low polyreactivity”; as for “QVQLVESGGGLVQAGGSLRLSCAASGITFYGYDMGWYRQAPGKERELFAAISRSGGSTYYADSVKGRFTISRDNAKNTVYLQMNSLKPEDTAVYYCAADKQGYLGRTAFRYYYWGQGTQVTVSS”, “high polyreactivity”.
“QVQLVESGGGLVQAGGSLRLSCAASGSIFWIYAMVWSRQAPGKERELVAVISDRGARTYYADSVKGRFTLSRDNAKNTVYLQMNSLKPEDTAVYYCNADTRQARLQKMDSWGQGTQVTVSS”: the “polyreactivity (PSR sort gate)” value is “high polyreactivity”.
Regarding “QVQLVESGGGLVQAGGRLRLSCAASGSIFSRYAMGWYRQAPGKERELVAAITSRGSGTNYADSVKGRFTISRDNAKNTVYLQMNSLKPEDTAVYYCNAARLPRLGWPTPYLYDYWGQGTQVTVSS”, the “polyreactivity (PSR sort gate)” value is “high polyreactivity”.
